Reference: US20250341517A1 (published 2025)
Ends that are not written are not given here. FAM = carboxyfluorescein (FAM) fluorescent label

T1: C-reactive protein (UniProt P02741 19-224)
T1 construct: also called CRP
T1 sequence (looked up): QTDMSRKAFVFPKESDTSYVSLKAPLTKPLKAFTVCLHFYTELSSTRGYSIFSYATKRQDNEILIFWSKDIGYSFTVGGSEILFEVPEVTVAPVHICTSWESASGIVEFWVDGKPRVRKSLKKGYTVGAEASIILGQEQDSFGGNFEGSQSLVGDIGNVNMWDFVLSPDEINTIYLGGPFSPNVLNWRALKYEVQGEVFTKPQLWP

B1: L1 peptide (peptide)
peptide: TYLEWYPQKPGQSPKLLIYK
modifications: not fully specified (N-terminus)
notes: Synthetic 20-mer homologous to the FR2 region of the light chain; The label differs between experiments; also called L1 switching peptide; first peptide compound L1
B2: H1 peptide (peptide)
peptide: SYWIHWVKQRPGQGLEWIGE
modifications: not fully specified (N-terminus)
notes: Synthetic 20-mer homologous to the FR2 region of the heavy chain; The fluorescent label differs between experiments; also called H1 switching peptide; third peptide compound H1
B3: L2 peptide (peptide)
peptide: {FAM}-VYYCFQGSHVPFTK
notes: Synthetic 14-mer homologous to the FR3 or FR4 region of the light chain; also called L2 switching peptide; second peptide compound L2
B4: H2 peptide (peptide)
peptide: VYYCAREPTGTGIYFDVWGK
modifications: not fully specified (N-terminus)
notes: Synthetic 20-mer homologous to the FR3 or FR4 region of the heavy chain; The label differs between experiments; also called H2 switching peptide; fourth peptide compound H2

How the values were obtained:
H2 peptide = target: B4; assay: FRET on microplate: FAM-L1 immobilised, TAMRA-H2 incubated
Anti-CRP antibody(r) = target: T2, Anti-CRP antibody(r); assay: labelled peptide on antibody immobilised on microplate; antigen CRP
T2 construct: also called rabbit IgG (CRP)

Anti-HRP antibody(r) [1] = target: T3, Anti-HRP antibody(r); assay: labelled peptide on antibody immobilised on microplate; antigen HRP
T3 construct: Rabbit IgG, immobilised on a microplate; also called rabbit anti-HRP antibodies; anti-HRP antibody from a rabbit

Anti-hCG antibody(m) = target: T4, Anti-hCG antibody(m); assay: labelled peptide on antibody immobilised on microplate; antigen hCG
T4 construct: also called mouse IgG (hCG)

Anti-HRP antibody(r) [2] = target: T3, Anti-HRP antibody(r); assay: labelled peptide on immobilised rabbit anti-HRP antibody, papain cleavage
Anti-HBsAg antibody(g) = target: T5, Anti-HBsAg antibody(g); assay: labelled peptide on antibody immobilised on microplate; antigen HBsAg
T5 construct: also called anti-HBsAg antibodies from goats; goat IgG (HBsAg)

[3] = target: T6, anti-Inf-A binding antibody; assay: SPR biosensor, anti-Inf-A antibody immobilised on Au substrate, BSA blocked
T6 construct: also called anti-Inf-A antibody; anti-inf A antibody
Description: Referring to FIG. 17A, anti-Inf-A and anti-Inf-B binding antibodies were immobilized on an Au substrate using an SPR biosensor, and the blank surface of the substrate was blocked with a BSA solution to treat Inf-A and Inf-B.

[4] = target: T7, anti-Inf-B binding antibody; assay: SPR biosensor, anti-Inf-B antibody immobilised on Au substrate, BSA blocked
T7 construct: also called anti-Inf-B antibody

C-reactive protein = target: T1, C-reactive protein; assay: labelled peptide on protein immobilised on microplate; fluorescence at bottom
protein-A = protein-A (UniProt P38507 37-477); assay: as above
BSA = target: T8, BSA (UniProt P02769 25-607); assay: as above
T8 construct: also called bovine serum albumin

[5] = target: T6, anti-Inf-A binding antibody; assay: dissociation of labelled peptide from anti-Inf-A antibody on treatment with Inf-A; fluorescence
[6] = target: T7, anti-Inf-B binding antibody; assay: dissociation of labelled peptide from anti-Inf-B antibody on treatment with Inf-B; fluorescence
Anti-HRP antibody(r) [7] = target: T3, Anti-HRP antibody(r); assay: fluorescence in solution against HRP concentration (0.3 to 100 µM); peptide on immobilised rabbit anti-HRP antibody
Description: In this experiment, an anti-HRP antibody from a rabbit immobilized on a microplate was used as the binding antibody and HRP was used as the antigen.

L2 peptide = target: B3; assay: FRET on microplate: FAM-L2 immobilised, TAMRA-H1 incubated

T8 sequence (P02769 25-607 limits assumed): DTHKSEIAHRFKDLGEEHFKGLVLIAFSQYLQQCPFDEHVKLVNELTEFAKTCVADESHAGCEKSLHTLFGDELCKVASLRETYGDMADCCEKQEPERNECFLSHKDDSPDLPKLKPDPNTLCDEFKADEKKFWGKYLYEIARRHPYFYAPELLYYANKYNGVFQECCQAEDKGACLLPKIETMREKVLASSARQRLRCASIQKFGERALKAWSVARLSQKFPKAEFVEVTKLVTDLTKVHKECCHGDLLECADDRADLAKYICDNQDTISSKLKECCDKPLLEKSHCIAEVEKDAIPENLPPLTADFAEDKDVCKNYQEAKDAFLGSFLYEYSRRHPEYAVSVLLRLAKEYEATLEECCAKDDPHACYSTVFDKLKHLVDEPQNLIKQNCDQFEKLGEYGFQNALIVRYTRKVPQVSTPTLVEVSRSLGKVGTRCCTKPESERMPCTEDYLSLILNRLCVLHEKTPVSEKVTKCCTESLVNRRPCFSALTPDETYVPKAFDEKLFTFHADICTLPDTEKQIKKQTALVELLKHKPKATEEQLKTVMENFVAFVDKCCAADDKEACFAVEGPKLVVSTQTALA

| Binder | change (%) of fluorescence at bottom (B) of microplate (Anti-CRP antibody(r)) | change (%) of fluorescence in solution (S) (Anti-CRP antibody(r)) | fluorescence intensity at bottom (B) of microplate after antigen binding (Anti-CRP antibody(r)) | fluorescence intensity at bottom (B) of microplate before antigen binding (Anti-CRP antibody(r)) | fluorescence intensity in solution (S) after antigen binding (Anti-CRP antibody(r)) | fluorescence intensity in solution (S) before antigen binding (Anti-CRP antibody(r)) | change (%) of fluorescence at bottom (B) of microplate (Anti-HRP antibody(r) [1]) | change (%) of fluorescence in solution (S) (Anti-HRP antibody(r) [1]) | fluorescence intensity at bottom (B) of microplate after antigen binding (Anti-HRP antibody(r) [1]) | fluorescence intensity at bottom (B) of microplate before antigen binding (Anti-HRP antibody(r) [1]) | fluorescence intensity in solution (S) after antigen binding (Anti-HRP antibody(r) [1]) | fluorescence intensity in solution (S) before antigen binding (Anti-HRP antibody(r) [1]) | change (%) of fluorescence at bottom (B) of microplate (Anti-hCG antibody(m)) | change (%) of fluorescence in solution (S) (Anti-hCG antibody(m)) | fluorescence intensity at bottom (B) of microplate after antigen binding (Anti-hCG antibody(m)) | fluorescence intensity at bottom (B) of microplate before antigen binding (Anti-hCG antibody(m)) | fluorescence intensity in solution (S) after antigen binding (Anti-hCG antibody(m)) | fluorescence intensity in solution (S) before antigen binding (Anti-hCG antibody(m)) | decrease of fluorescence intensity at the bottom of the microplate after papain treatment (Anti-HRP antibody(r) [2]) | increase of fluorescence intensity in the solution after papain treatment (Anti-HRP antibody(r) [2]) | further results |
| --- | --- | --- | --- | --- | --- | --- | --- | --- | --- | --- | --- | --- | --- | --- | --- | --- | --- | --- | --- | --- | --- |
| B1 | -48.6% | 778% | 3460 | 6720 | 6500 | 741 | -87.3% | 357% | 1990 | 15600 | 12300 | 2690 | -61.6% | 187% | 1780 | 4630 | 3580 | 1250 | 84.8% | 1030% | binding result (H2 peptide): binds; change (%) of fluorescence at bottom (B) of microplate (Anti-HBsAg antibody(g)): -51.3%; change (%) of fluorescence in solution (S) (Anti-HBsAg antibody(g)): 638%; fluorescence intensity at bottom (B) of microplate after antigen binding (Anti-HBsAg antibody(g)): 5390; fluorescence intensity at bottom (B) of microplate before antigen binding (Anti-HBsAg antibody(g)): 11100; fluorescence intensity in solution (S) after antigen binding (Anti-HBsAg antibody(g)): 20500; fluorescence intensity in solution (S) before antigen binding (Anti-HBsAg antibody(g)): 2780; Kd [3]: 14 µM; Kd [4]: 14 µM; binding result (C-reactive protein): no binding; binding result (protein-A): no binding; binding result (BSA): no binding; relative change in fluorescence signal [5]: 176%; relative change in fluorescence signal [6]: 180%; Kd (Anti-HRP antibody(r) [7]): 3.29 µM |
| B2 | -26.8% | 152% | 3600 | 4910 | 5660 | 2240 | -87.7% | 746% | 1450 | 11800 | 22000 | 2600 | -65.6% | 206% | 1940 | 5650 | 3920 | 1280 | 84.3% | 2180% | binding result (L2 peptide): binds; change (%) of fluorescence at bottom (B) of microplate (Anti-HBsAg antibody(g)): -58.9%; change (%) of fluorescence in solution (S) (Anti-HBsAg antibody(g)): 410%; fluorescence intensity at bottom (B) of microplate after antigen binding (Anti-HBsAg antibody(g)): 4620; fluorescence intensity at bottom (B) of microplate before antigen binding (Anti-HBsAg antibody(g)): 11200; fluorescence intensity in solution (S) after antigen binding (Anti-HBsAg antibody(g)): 11500; fluorescence intensity in solution (S) before antigen binding (Anti-HBsAg antibody(g)): 2240; binding result (C-reactive protein): no binding; binding result (protein-A): no binding; binding result (BSA): no binding; relative change in fluorescence signal [5]: 130%; relative change in fluorescence signal [6]: 145%; Kd (Anti-HRP antibody(r) [7]): 1.65 µM |
| B3 | -44.9% | 883% | 11200 | 20400 | 32200 | 3270 | -74.5% | 597% | 3210 | 12600 | 16100 | 2320 | -90.7% | 456% | 3070 | 33200 | 9400 | 1690 | 72.5% | 2450% | change (%) of fluorescence at bottom (B) of microplate (Anti-HBsAg antibody(g)): -64.8%; change (%) of fluorescence in solution (S) (Anti-HBsAg antibody(g)): 574%; fluorescence intensity at bottom (B) of microplate after antigen binding (Anti-HBsAg antibody(g)): 9860; fluorescence intensity at bottom (B) of microplate before antigen binding (Anti-HBsAg antibody(g)): 28000; fluorescence intensity in solution (S) after antigen binding (Anti-HBsAg antibody(g)): 15400; fluorescence intensity in solution (S) before antigen binding (Anti-HBsAg antibody(g)): 2280; binding result (C-reactive protein): no binding; binding result (protein-A): no binding; binding result (BSA): no binding; relative change in fluorescence signal [5]: 225%; relative change in fluorescence signal [6]: 151%; Kd (Anti-HRP antibody(r) [7]): 1.48 µM |
| B4 | -39.5% | 677% | 22200 | 22200 | 16300 | 2100 | -85.2% | 698% | 1810 | 122000 | 18100 | 2270 | -88.5% | 416% | 23300 | 23300 | 8540 | 1650 | 58.7% | 2360% | change (%) of fluorescence at bottom (B) of microplate (Anti-HBsAg antibody(g)): -36.1%; change (%) of fluorescence in solution (S) (Anti-HBsAg antibody(g)): 412%; fluorescence intensity at bottom (B) of microplate after antigen binding (Anti-HBsAg antibody(g)): 18800; fluorescence intensity at bottom (B) of microplate before antigen binding (Anti-HBsAg antibody(g)): 29400; fluorescence intensity in solution (S) after antigen binding (Anti-HBsAg antibody(g)): 9140; fluorescence intensity in solution (S) before antigen binding (Anti-HBsAg antibody(g)): 1780; Kd [3]: 37 µM; Kd [4]: 56 µM; binding result (C-reactive protein): no binding; binding result (protein-A): no binding; binding result (BSA): no binding; relative change in fluorescence signal [5]: 352%; relative change in fluorescence signal [6]: 199%; Kd (Anti-HRP antibody(r) [7]): 3.11 µM |
